Publication PMC7686362, “Recent evolution of a TET-controlled and DPPA3/STELLA-driven pathway of passive DNA demethylation in mammals” (Nature Communications, 2020)
Blank lines part the entries; values can stand above or below the molecule they belong to.

Experiments:
[1] = target: endogenous UHRF1-GFP (Uhrf1 locus tagged with GFP in mouse ESCs) (mouse (endogenous in J1 ESCs)) (UniProt Q8VDF2)
[2] = target: T1, mUHRF1 C-terminally tagged with GFP- and 6xHis-tag (mouse, UniProt Q8VDF2 1-782); assay: MST; 200 nM UHRF1-GFP-6xHis mixed with 0.15 nM to 5 µM GST-DPPA3, 30 min on ice; Monolith NT.115, 80% LED and 80% MST power; settings: both partners purified
T1 construct: UHRF1, mouse (mUHRF1); also called UHRF1-eGFP; recombinant UHRF1-GFP; source: HEK 293T cells, purified (Ni-NTA beads); not shown: GFP, C-terminal, kept
T1 sequence (looked up): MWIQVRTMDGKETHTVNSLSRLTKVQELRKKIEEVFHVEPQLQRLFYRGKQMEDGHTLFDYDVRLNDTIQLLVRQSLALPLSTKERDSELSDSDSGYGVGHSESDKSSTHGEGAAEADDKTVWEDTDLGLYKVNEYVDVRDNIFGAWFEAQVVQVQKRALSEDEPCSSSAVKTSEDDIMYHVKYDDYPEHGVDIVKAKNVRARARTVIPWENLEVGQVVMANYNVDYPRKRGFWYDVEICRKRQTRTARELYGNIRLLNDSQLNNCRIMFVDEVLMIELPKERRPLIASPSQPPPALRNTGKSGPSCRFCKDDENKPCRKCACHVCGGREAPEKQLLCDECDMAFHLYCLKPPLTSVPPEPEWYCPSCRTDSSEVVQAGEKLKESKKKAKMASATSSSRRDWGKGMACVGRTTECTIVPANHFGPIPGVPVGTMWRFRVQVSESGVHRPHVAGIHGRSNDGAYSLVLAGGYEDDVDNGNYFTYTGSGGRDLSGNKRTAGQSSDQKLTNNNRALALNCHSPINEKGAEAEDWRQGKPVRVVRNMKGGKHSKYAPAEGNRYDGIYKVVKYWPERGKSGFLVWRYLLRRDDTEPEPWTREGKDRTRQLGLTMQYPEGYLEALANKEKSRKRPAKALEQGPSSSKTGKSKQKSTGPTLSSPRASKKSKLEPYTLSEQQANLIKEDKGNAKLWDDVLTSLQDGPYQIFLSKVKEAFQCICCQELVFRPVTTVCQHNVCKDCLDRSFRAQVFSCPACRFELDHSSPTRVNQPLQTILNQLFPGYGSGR

mobile fraction of UHRF1-GFP by RICS in live ESCs expressing DPPA3-KRR [1]: 32.4%
Molecule: DPPA3-KRR-mScarlet (K85E/R85E/R87E as printed) (from UniProt Q8QZY3 1-150) (natural protein)

Kd [2]: 440 nM
B1: GST-mDPPA3 wild-type (natural protein, mouse, UniProt Q8QZY3 1-150, looked up)
chain: MEEPSEKVDPMKDPETPQKKDEEDALDDTDVLQPETLVKVMKKLTLNPGVKRSARRRSLRNRIAAVPVENKSEKIRREVQSAFPKRRVRTLLSVLKDPIAKMRRLVRIEQRQKRLEGNEFERDSEPFRCLCTFCHYQRWDPSENAKIGKN
notes: DPPA3, mouse, fragment corresponding to the full-length protein amplified from mouse DPPA3 cDNA, in pGEX4T-3; also called GST-DPPA3 WT; D3^WT; source: E. coli BL21-CodonPlus, purified (Glutathione Sepharose, PD10 desalting)
